This note sets out measurements from publication PMC6482957 (Nature structural & molecular biology, 2018).

This experiment concerns the target T1, human p300 ZZ domain (aa 1663–1713) (human, UniProt Q09472 1663-1713).
T1 sequence: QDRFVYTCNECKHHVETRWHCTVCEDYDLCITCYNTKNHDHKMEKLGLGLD
The experiment can be described thus: crystal structure.

As for ARTKQT [histone H3 tail (residues 1–6)], the binding result is given as “binds”.
